The subject of this data set is Saccharomyces cerevisiae. Kind of data set: protein stability index of tFT-peptide fusion (C-terminal peptide) (PSI (0-1 scale)); higher = more stable (slower turnover). To be noted: temperature: 30 C. As for the experimental part:
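MPS profiling in S. cerevisiae of the yeast C-terminome library: the last 12 aa of each annotated ORF are fused to the C-terminus of a sfGFP-mCherry timer, after a GGGS linker. Cells are FACS-sorted into 8 mCherry/sfGFP bins and deep-sequenced. PSI runs from 0 (unstable) to 1 (stable); wild type and das1Δ backgrounds, two technical replicates each.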

Where [1] appears, read: genetic background: das1 deletion.

± gives the standard deviation of the averaged measurements.

With DGGLAGPVTVRD [FMP45 C-terminal 12 aa], the protein stability index turned out to be 0.6903 ± 0.005 under setting [1] and 0.713 ± 0.048 (genetic background: wild type).
DGSADLGGWETM [UBR2 C-terminal 12 aa]: the protein stability index worked out at 0.732 ± 0.026 under setting [1] and 0.733 ± 0.048 (genetic background: wild type).
As to DIIKSIGDSYSI [NSE3 C-terminal 12 aa], the protein stability index reads like this: under setting [1], 0.69 ± 0.03; (genetic background: wild type) 0.734 ± 0.076.
For DIYEIRGTALDD [DSL1 C-terminal 12 aa], the protein stability index was 0.6986 ± 0.0054 under setting [1] and 0.699 ± 0.052 (genetic background: wild type).
Turning to “DKKVNNNIILFL [YAL037C-A C-terminal 12 aa]”, the protein stability index reads like this: under setting [1], 0.692 ± 0.042; (genetic background: wild type) 0.704 ± 0.011.
For the sequence DLEGVLWRSYYA [BLM10 C-terminal 12 aa], the protein stability index by setting is: under setting [1], 0.744 ± 0.008; (genetic background: wild type) 0.711 ± 0.0089.
Regarding DLIESTFRSITQ [PAN3 C-terminal 12 aa], the protein stability index stood at 0.7194 ± 0.0067 under setting [1] and 0.7049 ± 0.0029 (genetic background: wild type).
For the sequence DLLDKDVLLISE [CDC7 C-terminal 12 aa], the protein stability index runs as follows: under setting [1], 0.706 ± 0.0095; (genetic background: wild type) 0.6734 ± 0.0014.
Regarding DLSLVFGNHEST [HEM15 C-terminal 12 aa], the protein stability index is, setting by setting: under setting [1], 0.694 ± 0.038; (genetic background: wild type) 0.727 ± 0.02.
Turning to DNEGSRKMLKIE [CIN8 C-terminal 12 aa], the protein stability index by setting is: under setting [1], 0.6613 ± 0.0033; (genetic background: wild type) 0.662 ± 0.042.
With DNKPKLSDVEKD [GEA2 C-terminal 12 aa], the protein stability index is 0.698 ± 0.019 under setting [1] and 0.707 ± 0.017 (genetic background: wild type).
Taken in the same sequence, the figures for DNQPWQLARCGR [HRT1 C-terminal 12 aa] were 0.698 ± 0.015 and 0.718 ± 0.014.
Regarding DPEPPKEDPHDH [TCP1 C-terminal 12 aa], the protein stability index was determined as 0.706 ± 0.0085 under setting [1] and 0.704 ± 0.051 (genetic background: wild type).
On to DQAAKTFVIKKD [MDM38 C-terminal 12 aa], for which the protein stability index came out at 0.703 ± 0.019 under setting [1] and 0.668 ± 0.028 (genetic background: wild type).
For DQFQKVEKSIVK [RRF1 C-terminal 12 aa] the same measures were 0.69 ± 0.02 and 0.675 ± 0.061.
Taken in the same sequence, the figures for DQLEDTSSHDEL [MPD2 C-terminal 12 aa] were 0.7476 ± 0.0003 and 0.7 ± 0.025.
As for DSDADIEELLEE [PGA2 C-terminal 12 aa], the protein stability index reads like this: under setting [1], 0.696 ± 0.015; (genetic background: wild type) 0.689 ± 0.046.
DSEDDEDESDDE [SUI2 C-terminal 12 aa]: the protein stability index was 0.689 ± 0.036 under setting [1] and 0.717 ± 0.094 (genetic background: wild type).
Taken in the same sequence, the figures for DSFIPLQPKKKI [YML037C C-terminal 12 aa] were 0.684 ± 0.05 and 0.684 ± 0.015.
As to DSVEMKFDKLNI [RBS1 C-terminal 12 aa], the protein stability index was determined as 0.6821 ± 0.0029 under setting [1] and 0.748 ± 0.085 (genetic background: wild type).
On to DTDGAKISIINN [FKH2 C-terminal 12 aa], for which the protein stability index is, setting by setting: under setting [1], 0.7019 ± 0.0064; (genetic background: wild type) 0.7033 ± 0.002.
In turn, DVEDVLIDTLCN [PEX22 C-terminal 12 aa] yielded a protein stability index under setting [1] of 0.723 ± 0.019 and a protein stability index (genetic background: wild type) of 0.678 ± 0.03.
The sequence DVEIDEDEEYFY [SPO12 C-terminal 12 aa] returned a protein stability index under setting [1] of 0.707 ± 0.0084 and a protein stability index (genetic background: wild type) of 0.71 ± 0.01.
As for DVYVLFYERVYD [UBP7 C-terminal 12 aa], the protein stability index is, setting by setting: under setting [1], 0.682 ± 0.036; (genetic background: wild type) 0.682 ± 0.03.
As to DWLIDVIKEEQL [ARL1 C-terminal 12 aa], the protein stability index is, setting by setting: under setting [1], 0.728 ± 0.051; (genetic background: wild type) 0.695 ± 0.028.
In the case of EADFRKRFPSKV [PRK1 C-terminal 12 aa], the protein stability index is 0.694 ± 0.0081 under setting [1] and 0.669 ± 0.021 (genetic background: wild type).
For the sequence EAGDSDILTTLA [RPL30 C-terminal 12 aa], the protein stability index under setting [1] was 0.706 ± 0.024 and the protein stability index (genetic background: wild type) turned out to be 0.687 ± 0.0078.
On to “EAQLSSNDEPLP [YCR102W-A C-terminal 12 aa]”, for which the protein stability index came out at 0.6904 ± 0.004 under setting [1] and 0.721 ± 0.089 (genetic background: wild type).
Taken in the same sequence, the figures for ECPSVPPTVRAY [SDH1 C-terminal 12 aa] were 0.528 ± 0.011 and 0.55 ± 0.0063.
For EDGDNWEVVGKK [TIF3 C-terminal 12 aa] the same measures were 0.7056 ± 0.0056 and 0.727 ± 0.012.
Consider EDHKVDGNKKED [VMA21 C-terminal 12 aa], for which the protein stability index runs as follows: under setting [1], 0.68 ± 0.017; (genetic background: wild type) 0.707 ± 0.011.
Turning to EDIKQALKQATN [CYS3 C-terminal 12 aa], the protein stability index by setting is: under setting [1], 0.6902 ± 0.0052; (genetic background: wild type) 0.654 ± 0.023.
Taken in the same sequence, the figures for EEAREEFENIAL [SMI1 C-terminal 12 aa] were 0.679 ± 0.0096 and 0.645 ± 0.017.
For the sequence EEARQEKSGQES [CRZ1 C-terminal 12 aa], the protein stability index is, setting by setting: under setting [1], 0.678 ± 0.048; (genetic background: wild type) 0.659 ± 0.011.
As for EECVKVQWESRT [TSR4 C-terminal 12 aa], the protein stability index was 0.681 ± 0.051 under setting [1] and 0.69407 ± 0.00052 (genetic background: wild type).
As to EEIRRENFRVIE [KTR7 C-terminal 12 aa], the protein stability index by setting is: under setting [1], 0.713 ± 0.012; (genetic background: wild type) 0.677 ± 0.029.
The sequence EELQGNARALNN [SNN1 C-terminal 12 aa] displayed a protein stability index under setting [1] of 0.6962 ± 0.0046 and a protein stability index (genetic background: wild type) of 0.69 ± 0.019.
Regarding EGEYADNVEPLA [PRY1 C-terminal 12 aa], the protein stability index reads like this: under setting [1], 0.7124 ± 0.0048; (genetic background: wild type) 0.685 ± 0.02.
Take EHIGAQNTGDGR [YER187W C-terminal 12 aa]: the protein stability index runs as follows: under setting [1], 0.6894 ± 0.0014; (genetic background: wild type) 0.679 ± 0.033.
Taken in the same sequence, the figures for EHTILSDSDETH [RIM15 C-terminal 12 aa] were 0.71 ± 0.012 and 0.717 ± 0.022.
As for EIAADDTKKQEK [SOK2 C-terminal 12 aa], the protein stability index stood at 0.672 ± 0.027 under setting [1] and 0.684 ± 0.074 (genetic background: wild type).
With EIIDNWEKYEQS [FAS1 C-terminal 12 aa], the protein stability index is, setting by setting: under setting [1], 0.706 ± 0.011; (genetic background: wild type) 0.7 ± 0.04.
Take EIKHVFTGVYGG [ASP1 C-terminal 12 aa]: the protein stability index reads like this: under setting [1], 0.68 ± 0.006; (genetic background: wild type) 0.686 ± 0.0042.
As for EKHSFSTTQQVV [NRT1 C-terminal 12 aa], the protein stability index came to 0.666 ± 0.019 under setting [1] and 0.664 ± 0.028 (genetic background: wild type).
Taken in the same sequence, the figures for EKKKIFKGNKTD [YLR030W C-terminal 12 aa] were 0.696 ± 0.036 and 0.669 ± 0.012.
In the case of EKMKKNQSIGWF [MRPL25 C-terminal 12 aa], the protein stability index reads like this: under setting [1], 0.756 ± 0.02; (genetic background: wild type) 0.73159 ± 0.00064.
Turning to EKSSVKRPCVKK [RKM4 C-terminal 12 aa], the protein stability index is, setting by setting: under setting [1], 0.674 ± 0.02; (genetic background: wild type) 0.701 ± 0.0034.
Regarding EKTVNFIKTFGV [GUT2 C-terminal 12 aa], the protein stability index is, setting by setting: under setting [1], 0.6956 ± 0.0026; (genetic background: wild type) 0.71 ± 0.035.
Sequence ELKEGRTFLGRS [APQ13 C-terminal 12 aa] had a protein stability index under setting [1] of 0.703 ± 0.014 and a protein stability index (genetic background: wild type) of 0.695 ± 0.028.
ELSDLENKLGKK [RCF1 C-terminal 12 aa]: the protein stability index reads like this: under setting [1], 0.6843 ± 0.0062; (genetic background: wild type) 0.6991 ± 0.0033.
Consider ELSNNLNVDEFV [LRS4 C-terminal 12 aa], for which the protein stability index is 0.692 ± 0.0034 under setting [1] and 0.687 ± 0.034 (genetic background: wild type).
ELTDFKYPSNYE [PUT2 C-terminal 12 aa]: the protein stability index was 0.6787 ± 0.0024 under setting [1] and 0.711 ± 0.066 (genetic background: wild type).
Taken in the same sequence, the figures for EMRKRFFEKDLL [RAP1 C-terminal 12 aa] were 0.696 ± 0.022 and 0.723 ± 0.059.
For the sequence ENIEVILSNGRM [SNF12 C-terminal 12 aa], the protein stability index under setting [1] came to 0.676 ± 0.03 and the protein stability index (genetic background: wild type) turned out to be 0.689 ± 0.037.
Turning to ENKLWNTEYFFC [ECM34 C-terminal 12 aa], the protein stability index is 0.738 ± 0.018 under setting [1] and 0.6655 ± 0.0018 (genetic background: wild type).
On to ENLENKINNLSK [STF1 C-terminal 12 aa], for which the protein stability index by setting is: under setting [1], 0.709 ± 0.025; (genetic background: wild type) 0.698 ± 0.034.
In the case of ENNDNDDNDGLF [CTR9 C-terminal 12 aa], the protein stability index was 0.707 ± 0.037 under setting [1] and 0.701 ± 0.048 (genetic background: wild type).
For ENNEKFLNIRLY [CDC24 C-terminal 12 aa] the same measures were 0.71 ± 0.026 and 0.668 ± 0.013.
In the case of ENVLNKEGVLQK [GIN4 C-terminal 12 aa], the protein stability index runs as follows: under setting [1], 0.682 ± 0.012; (genetic background: wild type) 0.734 ± 0.047.
For EPAYDGASVEQQ [THR1 C-terminal 12 aa] the same measures were 0.688 ± 0.0074 and 0.6724 ± 0.0055.
Regarding EPEAEQAVEDTA [HSP30 C-terminal 12 aa], the protein stability index by setting is: under setting [1], 0.685 ± 0.018; (genetic background: wild type) 0.6594 ± 0.0041.
As to EPRYNDDAQVSD [KCS1 C-terminal 12 aa], the protein stability index is, setting by setting: under setting [1], 0.684 ± 0.018; (genetic background: wild type) 0.663 ± 0.064.
As to EREGGDEHDDMA [PWP1 C-terminal 12 aa], the protein stability index was found to be 0.684 ± 0.015 under setting [1] and 0.708 ± 0.035 (genetic background: wild type).
As for ERRLNAIINGEV [YTH1 C-terminal 12 aa], the protein stability index under setting [1] came out at 0.689 ± 0.024 and the protein stability index (genetic background: wild type) is 0.685 ± 0.034.
As to ESDHPTLADNSV [MRL1 C-terminal 12 aa], the protein stability index is 0.6955 ± 0.0041 under setting [1] and 0.6912 ± 0.00095 (genetic background: wild type).
ESEKELYNATLA [NHP6A C-terminal 12 aa]: the protein stability index by setting is: under setting [1], 0.697 ± 0.011; (genetic background: wild type) 0.718 ± 0.0079.
Turning to ESGLQSINESTL [ALY2 C-terminal 12 aa], the protein stability index is, setting by setting: under setting [1], 0.7074 ± 0.0047; (genetic background: wild type) 0.706 ± 0.05.
Consider ESSAFEYPGGRL [BOI1 C-terminal 12 aa], for which the protein stability index reads like this: under setting [1], 0.7086 ± 0.0049; (genetic background: wild type) 0.69 ± 0.0096.

Source of the values: the supplement of paper PMC10724198.
